Measurements from US20170296640A1 (IMMATICS BIOTECHNOLOGIES, published 2017).

These binders were tested against T1, HLA-A*02:01 (peptide-receptive MHC class I monomer after UV cleavage of the UV-sensitive ligand) (human) (assay: UV ligand-exchange ELISA; exchange yield grade (+ >=10%, ++ >=20%, +++ >=50%, ++++ >=75%)).
T1 construct: MHC monomers loaded by UV-ligand exchange and captured on streptavidin plates
Method in brief: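 UV-cleavable peptide in HLA monomers exchanged for test peptide by UV irradiation; exchange yield measured by streptavidin-capture ELISA with HRP anti-β2m (TMB, 450 nm) on 100-fold diluted complexes. Quantified against refolded HLA-A*02:01/MLA-001 standards (15-500 ng/ml).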

| Binder | peptide exchange yield [%] |
| --- | --- |
| QLTEMLPSI [QLTEMLPSI (SEQ ID NO: 266)] | ≥ 75 |
| VLQNVAFSV [VLQNVAFSV (SEQ ID NO: 269)] | ≥ 75 |
| KIIDTAGLSEA [KIIDTAGLSEA (SEQ ID NO: 291)] | 50 to 75 |
| KLINSQISL [KLINSQISL (SEQ ID NO: 292)] | 50 to 75 |
| YLLEQGAQV [YLLEQGAQV (SEQ ID NO: 282)] | ≥ 75 |
| KLYGPEGLELV [KLYGPEGLELV (SEQ ID NO: 294)] | ≥ 75 |
| GLMDNEIKV [GLMDNEIKV (SEQ ID NO: 263)] | 50 to 75 |
| SLSFVSPSL [SLSFVSPSL (SEQ ID NO: 309)] | 50 to 75 |
| FVWEASHYL [FVWEASHYL (SEQ ID NO: 303)] | ≥ 75 |
| RLAPEIVSA [RLAPEIVSA (SEQ ID NO: 288)] | 50 to 75 |
| YLLDQPVLEQRL [YLLDQPVLEQRL (SEQ ID NO: 271)] | ≥ 75 |
| LQFDGIHVV [LQFDGIHVV (SEQ ID NO: 301)] | 50 to 75 |
| SLAELDEKISA [SLAELDEKISA (SEQ ID NO: 302)] | 50 to 75 |
| NMISYVVHL [NMISYVVHL (SEQ ID NO: 276)] | 20 to 50 |
| FLLFINHRL [FLLFINHRL (SEQ ID NO: 278)] | 50 to 75 |
| SLLETGSDLLL [SLLETGSDLLL (SEQ ID NO: 267)] | 50 to 75 |
| RLLEEEGVSL [RLLEEEGVSL (SEQ ID NO: 299)] | 50 to 75 |
| HLTEDTPKV [HLTEDTPKV (SEQ ID NO: 286)] | 50 to 75 |
| VLFPLPTPL [VLFPLPTPL (SEQ ID NO: 268)] | ≥ 75 |
| ILMGHSLYM [ILMGHSLYM (SEQ ID NO: 287)] | ≥ 75 |
| KLYDEESLL [KLYDEESLL (SEQ ID NO: 31)] | ≥ 75 |
| FLNQESFDL [FLNQESFDL (SEQ ID NO: 27)] | 50 to 75 |
| FLLPVAVKL [FLLPVAVKL (SEQ ID NO: 307)] | 50 to 75 |
| ILQNGLETL [ILQNGLETL (SEQ ID NO: 297)] | 50 to 75 |
| AQVALVNEV [AQVALVNEV (SEQ ID NO: 306)] | 50 to 75 |
| NLAGENILNPL [NLAGENILNPL (SEQ ID NO: 279)] | 50 to 75 |
| FILEPLYKI [FILEPLYKI (SEQ ID NO: 296)] | ≥ 75 |

| Binder | peptide exchange yield [%] |
| --- | --- |
| VVVDSDSLAFV [VVVDSDSLAFV (SEQ ID NO: 270)] | ≥ 75 |
| ILSDVTQGL [ILSDVTQGL (SEQ ID NO: 29)] | 50 to 75 |
| ILTGTPPGV [ILTGTPPGV (SEQ ID NO: 264)] | 50 to 75 |
| IASPVIAAV [IASPVIAAV (SEQ ID NO: 290)] | 50 to 75 |
| KLQEQIHRV [KLQEQIHRV (SEQ ID NO: 284)] | 50 to 75 |
| TLQTVPLTTV [TLQTVPLTTV (SEQ ID NO: 281)] | ≥ 75 |
| ALIRLDDLFL [ALIRLDDLFL (SEQ ID NO: 304)] | 50 to 75 |
| SLLAANNLL [SLLAANNLL (SEQ ID NO: 289)] | ≥ 75 |
| SLLDQIPEM [SLLDQIPEM (SEQ ID NO: 308)] | 50 to 75 |
| SITAVTPLL [SITAVTPLL (SEQ ID NO: 285)] | 50 to 75 |
| LMGPVVHEV [LMGPVVHEV (SEQ ID NO: 262)] | ≥ 75 |
| KLDHTLSQI [KLDHTLSQI (SEQ ID NO: 272)] | 50 to 75 |
| ALTDVILCV [ALTDVILCV (SEQ ID NO: 298)] | ≥ 75 |
| GLAMVEAISYV [GLAMVEAISYV (SEQ ID NO: 293)] | ≥ 75 |
| ILSTLDVEL [ILSTLDVEL (SEQ ID NO: 30)] | 50 to 75 |
| LTIDTQYYL [LTIDTQYYL (SEQ ID NO: 3)] | 50 to 75 |
| FLSNANPSL [FLSNANPSL (SEQ ID NO: 28)] | 50 to 75 |
| KLLNLISKL [KLLNLISKL (SEQ ID NO: 274)] | ≥ 75 |
| ILWHFVASL [ILWHFVASL (SEQ ID NO: 265)] | ≥ 75 |
| AMLAQQMQL [AMLAQQMQL (SEQ ID NO: 305)] | 50 to 75 |
| FLIDLNSTHGTFL [FLIDLNSTHGTFL (SEQ ID NO: 277)] | 50 to 75 |
| KLMDLEDCAL [KLMDLEDCAL (SEQ ID NO: 275)] | ≥ 75 |
| IVLERNPEL [IVLERNPEL (SEQ ID NO: 300)] | 50 to 75 |
| ALMPVTPQA [ALMPVTPQA (SEQ ID NO: 283)] | 50 to 75 |
| AILLPQPPK [AILLPQPPK (SEQ ID NO: 273)] | 20 to 50 |
| SLLNHLPYL [SLLNHLPYL (SEQ ID NO: 280)] | ≥ 75 |
| SLAAVSQQL [SLAAVSQQL (SEQ ID NO: 295)] | 50 to 75 |
